Data: patent publication EP1747015B1 (Janssen Biotech, Inc., dated 2012)
One block for each binder: values may come before it.

Columns and labels:
[1] = target: T1, murine Tissue Factor in murine brain extracts (murine, UniProt P20352 29-294); assay: cell-based or functional assay
T1 sequence (looked up): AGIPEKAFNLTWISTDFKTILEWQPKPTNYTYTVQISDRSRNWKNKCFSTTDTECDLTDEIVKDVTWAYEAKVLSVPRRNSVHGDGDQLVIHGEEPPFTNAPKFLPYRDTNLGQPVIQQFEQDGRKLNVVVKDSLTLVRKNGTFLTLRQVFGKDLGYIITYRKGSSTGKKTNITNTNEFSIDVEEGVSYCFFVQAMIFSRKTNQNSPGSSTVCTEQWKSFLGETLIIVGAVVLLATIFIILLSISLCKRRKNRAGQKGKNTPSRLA

[2] = target: T2, murine Tissue Factor on B6F10 melanoma cells (murine, UniProt P20352 29-294); assay: FACS on B6F10 melanoma cells that express mTF
T2 construct: whole, on cells; also called cell-associated mTF
T2 sequence (looked up): T1 sequence (looked up)

B2: PHD127 Fab (Fab, V domains shown)
VH: QVQLVQSGAEVKKPGESLKISCKGSYSFTNSWISWVRQMPGKGLEWMGIIDPDDSYTSYSPSFQGQVTISADKSISTAYLQWSSLKASDTAMYYCARGAGYGRMFGDVWGQGTLVTVSS
VL: DIELTQPPSVSVAPGQTARISCSGDNLGSYYASWYQQKPGQAPVLVIYQDDNRPSGIPERFSGSNSGNTATLTISGTQAEDEADYYCGAYTYSTSWVFGGGTKLTVLG
notes: Human HuCAL Fab; 8 (VH) and 9 (VL) for PHD127 are inferred from the order of the words and must be checked against the listing
EC50 Conc. (ug/ml), inhibition of fibrin clot formation in human plasma [1]: 0.82 µg/mL | EC50 [2]: 4.35 nM

B3: PHD126 Fab (Fab, V domains shown)
VH: QVQLVQSGAEVKKPGESLKISCKGSYSFSNYWIGWVRQMPGKGLEWMGFIDPDDSDTNYSPSFQGQVTISADKSISTAYLQWSSLKASDTAMYYCARALYMQGGSFDSWGQGTLVTVSS
VL: DIELTQPPSVSVAPGQTARISCSGDNLGSYYVSWYQQKPGQAPVLVIYRDTDRPSGIPERFSGSNSGNTATLTISGTQAEDEADYYCQSYDYGVSNQVFGGGTKLTVLG
EC50 Conc. (ug/ml), inhibition of fibrin clot formation in human plasma [1]: 0.23 µg/mL

Second part, the binder after the results:

EC50 Conc. (ug/ml), inhibition of fibrin clot formation in human plasma [1]: 63.3 µg/mL
B1: PHD103 Fab (Fab, V domains shown)
VH: QVQLVQSGAEVKKPGESLKISCKGSGYSFSNSWIAWVRQMPGKGLEWMGGIIGPGHSYTKYSPSFQGQVTISADKSISTAYLQWSSLKASDTAMYYCARINMGYFDYWGQGTLVTVSS
VL: DIELTQPPSVSVAPGQTARISCSGDSLGLKKFVSWYQQKPGQAPVLVIYDDSNRPSGIPERFSGSNSGNTATLTISGTQAEDEADYYCGTYDQTIGHDVVFGGGTKLTVLG

EC50 Conc. (ug/ml), inhibition of fibrin clot formation in human plasma [1]: 23.8 µg/mL
B4: PHD104 Fab (Fab, V domains shown)
VH: QVQLVQSGAEVKKPGESLKISCKGSYSFTSNWIGWVRQMPGKGLEWMGWIYPSDSMTRYSPSFQGQVTISADKSISTAYLQWSSLKASDTAMYYCARYLFGLFDNWGQGTLVTVSS
VL: DIELTQPPSVSVAPGQTARISCSGDNLGSYYVSWYQQKPGQAPVLVIYNDNNRPSGIPERFSGSNSGNTATLTISGTQAEDEADYYCATYDSSTDVFGGGTKLTVLG
